{"source": "patent US20110009597A1", "about": "“RECOMBINANT GANODERMA LUCIDIUM IMMUNOMODULATORY PROTEIN (rLZ-8) AND USES THEREOF” (priority 2008, published 2011)", "key": {"WBC": {"system": "WBC", "test": "Cyclophosphamide low-leucocyte mice model, WBC", "type": "in vivo", "design": "unit not given here", "procedure": "rLZ-8 preparation of sterile saline. Divide them into 5 μg·kg^−1, 2.5 μg√kg^−1, 1.25 μg·kg^−1, 0.62 μg·kg^−1 dose groups.\nGenlei™ Scimax™ [Recombinant human granulocyte colony-stimulating factor injection (rhG-CSF)], production lot: 20060403; 75 μg/vial is prepared with sterile normal saline into the preparation of 3.2 μg·kg^−1, 0.2 ml/vial.\nCyclophosphamide (CP) for injection (the production lot number 050216; 200 mg/vial) is prepared with sterile normal saline into the preparation of 12.5 mg·kg^−1, 0.2 ml/vial.\nNormal control group, several protein dose groups, positive control group (Genlei™ Scimax™).\nExcluding the normal control group (given same normal saline), each group of mice were given tail vein injection of cyclophosphamide, […], 0.2 ml/vial, for 3 consecutive days. On 3rd day, rat tail venous blood sampling, sent to Jilin University First Hospital laboratory, cell analyze the number of WBC. After successful modeling, they were given to the above groups respective dose of rLZ-8 and positive drugs (Genlei™ Scimax™) treatment, the normal control group and CP groups were given same normal saline, on the 3rd, 7th and 14th day of the treatment to draw venous blood from mice tail respectively, sent to Jilin University First Hospital testing the numbers of WBC. Compare WBC changes before and after the treatment for analysis of drug efficacy."}, "NB4": {"system": "NB4", "test": "PI single stained flow cytometry, apoptosis of NB4", "type": "cell-based", "procedure": "Fluorescence microscope, model Leica ASLMD, K562, NB4. rLZ-8 is classified into high, medium and low three-dose groups respectively, now we prepare them with IMDM culture medium containing 2% FCS into the preparation of 2.5 μg·ml^−1, 0.5 μg/ml, 0.1 μg·ml^−1. […] (PI) 50 μg·ml ^−1.\nEstablish K562 as the normal control group, rLZ-8 low-dose group (0.1 μg·ml^−1), rLZ-8 medium dose group (0.5 μg·ml^−1), rLZ-8 high-dose group, (2.5 μg·ml^−1); set NB4 as the normal control group, rLZ-8 low-dose group (0.1 μg·ml^−1), rLZ-8 medium dose group (0.5 μg·ml^−1), rLZ-8 high-dose group, (2.5 μg·ml^−1).\nMix K562 and NB4 cells into 24-orifice plate respectively, and supply rLZ-8 in different concentrates, 1 ml/orifice, set 3-orifice multipunches for each group. Put them in 37° C., 5% CO2 incubator for 24 h, collect the cells of each concentrate, PBS washes twice and regulates the cell density to 1×10^6/ml, 70% ice ethanol fixation, adjusts to −20° C. and stays overnight. Wash the cells with PBS twice after fixing the cells, add PI (end density 50 μg·ml^−1) for room temperature and lucifuged hatching 10 min, 1000 r·min^−1 centrifuge 5 min, clear supernatant with disposable 400μ. IPBS re-suspension precipitation. And test on computer in 1 h."}, "S180 cells": {"system": "S180 cells", "test": "Mouse transplanted S180 subcutaneous tumor inhibition", "type": "in vivo, Mice", "details": "10 days", "procedure": "Mice, 18-22 g, males and females were equally divided, provided by Jilin University Laboratory Animal Center; Mice Ehrlich ascites cells strain, provided by our laboratory S180; Cyclophosphamide (CTX), offered by Jiangsu Hengrui Medicine Co., Ltd., lot number: 06101921. S180 ascites tumors and solid tumors in experiment group were divided into normal control group, negative control group, positive control group, rLZ-8 low-dose treatment group (0.25 mg·kg^−1), rLZ-8 medium-dose treatment group (0.5 mg·kg^−1), rLZ-8 high-dose treatment group (1 mg·kg^−1). For each group 10 mice.\nSelect well-growing S180 cells, dilute appropriately with sterile saline into a tumor cell suspension, cell counts for 10^7·L^−1, under the right armpit of each mouse inoculated subcutaneously 0.2 ml (except for the normal control group). Treatment after 24 h of vaccination. Normal control group and negative control group were given saline 0.2 ml·each^−l·d^−1, intraperitoneal injection; positive control group were given cyclophosphamide 20 mg·kg^−1, intraperitoneal injection. rLZ-8 treatment groups were given doses of tail venous injection respectively, 0.2 ml·each^−1·d^−1, in 10 consecutive days. Draw blood from orbital venous plexus 10 days before and after medication respectively, sent to Jilin University No. 1 Hospital clinical laboratory to test and analyze the number of WBC. Kill all mice the next day of drug withdrawal at cervical dislocation, dissect anatomically and take out the tumors, weigh tumors, calculate the inhibition rate using the following equation:\nInhibition rate (%)=(average tumore weight of the control group−average tumore weight of the experiment group)/average tumor weight of the control group×100%"}, "[1]": {"system": "human red blood cells (A, B, O and AB blood type)", "test": "Red blood cell agglutination, human", "type": "cell-based", "procedure": "A, B, O and AB blood type, from the healthy volunteers 2 ml respectively, SRBC (sheep red cell) 2 ml. Centrifuge the above RBC 1200 g·min^−1 for 10 min, clears the supernatant and wash with 5 ml PBS, repeat the above operation 3-5 times, and then uses 0.01 mol/L PBS suspension preparation of 1.5%. Prepare rLZ-8 with normal saline to final concentrations of 50 μg·ml^−1, 25 μg·ml^−1, 12.5 μg·ml^−1, 6.25 μg·ml^−1, 1.56 μg·ml^−1, 0.78 μg·ml^−1, 0.39 μg·ml^−1, 0.20 μg·ml^−1, 0.10 μg·ml^−1, 0.05 μg·ml^−1, 0.03 μg·ml^−1. Plant agglutinin (PHA) preparation Ibid.\nDivide experiment subjects into rLZ-8 concentration groups, positive drug control, and normal control group.\nOn 96-orifice Hemagglutination board, we add A-type 1.5%, erythrocyte 25 μl/hole, and then add 0.2% gelatin, 75 μl/hole. Drug groups are added different concentrations of rLZ-8, till the final concentration as above-noted; positive drug control group PHA 25 μl/hole; normal control group PBS25μl/hole. 6 parallel control groups in each group. Shaking for 30 s under normal room temperature, 37° C. incubation, observe the subjects 1 h later. For B-type, AB-type, O-type, the same experiment methods are as SRBC (sheep red cell) above."}, "[2]": {"details": "rLZ-8 0.25 mg·kg^−1 tail venous injection"}, "[3]": {"details": "rLZ-8 0.5 mg·kg^−1 tail venous injection"}, "[4]": {"details": "rLZ-8 1 mg·kg^−1 tail venous injection"}}}
{"molecule": "rLZ-8: Recombinant Ganoderma Lucidum Immune Regulatory Protein expressed in Pichia pastoris (protein, UniProt P14945 2-111, looked up) Immunomodulatory protein Ling …: SDTALIFRLAWDVKKLSFDYTPNWGRGNPNNFIDTVTFPKVLTDKAYTYRVAVSGRNLGVKPSYAVESDGSQKVNFLEYNSGYGIADTNTIQVFVVDPDTNNDFIIAQWN", "values": [{"measurement": "WBC, 3rdday of medication", "setting": "WBC; rLZ-8 0.62 μg·kg−1", "result": "6.4 ± 0.41"}, {"measurement": "WBC, 7thday of medication", "setting": "WBC; rLZ-8 0.62 μg·kg−1", "result": "27.2 ± 0.10"}, {"measurement": "WBC, 14thday of medication", "setting": "WBC; rLZ-8 0.62 μg·kg−1", "result": "13.9 ± 0.17"}, {"measurement": "WBC, 3rdday of medication", "setting": "WBC; rLZ-8 1.25 μg·kg−1", "result": "8.1 ± 0.17"}, {"measurement": "WBC, 7thday of medication", "setting": "WBC; rLZ-8 1.25 μg·kg−1", "result": "19.7 ± 0.17"}, {"measurement": "WBC, 14thday of medication", "setting": "WBC; rLZ-8 1.25 μg·kg−1", "result": "13.9 ± 0.14"}, {"measurement": "WBC, 3rdday of medication", "setting": "WBC; rLZ-8 2.5 μg·kg−1", "result": "6.6 ± 0.77"}, {"measurement": "WBC, 7thday of medication", "setting": "WBC; rLZ-8 2.5 μg·kg−1", "result": "22.8 ± 0.15"}, {"measurement": "WBC, 14thday of medication", "setting": "WBC; rLZ-8 2.5 μg·kg−1", "result": "15.2 ± 0.11"}, {"measurement": "WBC, 3rdday of medication", "setting": "WBC; rLZ-8 5 μg·kg−1", "result": "5.0 ± 0.12"}, {"measurement": "WBC, 7thday of medication", "setting": "WBC; rLZ-8 5 μg·kg−1", "result": "20.3 ± 0.11"}, {"measurement": "WBC, 14thday of medication", "setting": "WBC; rLZ-8 5 μg·kg−1", "result": "14.3 ± 0.21"}, {"measurement": "Apoptosis rate", "setting": "NB4; NB4, rLZ-8 0.1 μg·ml^−1, 24 h", "result": 9.23, "unit": "%"}, {"measurement": "Apoptosis rate", "setting": "NB4; NB4, rLZ-8 0.5 μg·ml^−1, 24 h", "result": 27.51, "unit": "%"}, {"measurement": "Apoptosis rate", "setting": "NB4; NB4, rLZ-8 2.5 μg·ml^−1, 24 h", "result": 38.60, "unit": "%"}, {"measurement": "Inhibition rate (%)", "setting": "S180 cells; [2]", "result": 16.8, "unit": "%"}, {"measurement": "Tumor weight", "setting": "S180 cells; [2]", "result": "0.84 ± 0.03", "unit": "g"}, {"measurement": "Inhibition rate (%)", "setting": "S180 cells; [3]", "result": 25.7, "unit": "%"}, {"measurement": "Tumor weight", "setting": "S180 cells; [3]", "result": "0.75 ± 0.02", "unit": "g"}, {"measurement": "Inhibition rate (%)", "setting": "S180 cells; [4]", "result": 45.5, "unit": "%"}, {"measurement": "Tumor weight", "setting": "S180 cells; [4]", "result": "0.55 ± 0.03", "unit": "g"}, {"measurement": "agglutination of four types of human red blood cells (in words)", "setting": "[1]", "result": "not agglutinative"}]}
